According to article PMC2756588:

Tests used:
Experiment in all cases: SPOT array
Sho1, P40073 = details: median of control spots 1148
Hse1, P38753 = biological target: T1, Hse1, P38753; details: median of control spots 1727
T1 sequence (P38753 208-285, looked up): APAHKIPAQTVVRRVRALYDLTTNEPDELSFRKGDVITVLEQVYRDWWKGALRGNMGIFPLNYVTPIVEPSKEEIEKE

Sla1-2, P32790 = biological target: T2, Sla1-2, P32790; details: median of control spots 712
T2 sequence (P32790 60-140, looked up): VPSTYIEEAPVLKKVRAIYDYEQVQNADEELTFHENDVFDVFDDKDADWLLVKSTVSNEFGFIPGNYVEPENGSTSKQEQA

Nbp2, Q12163 = biological target: T3, Nbp2, Q12163; details: median of control spots 357
T3 sequence (Q12163 103-180, looked up): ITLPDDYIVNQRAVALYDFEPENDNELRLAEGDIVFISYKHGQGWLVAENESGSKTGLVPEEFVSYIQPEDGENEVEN

Myo5, Q04439 = biological target: T4, Myo5, Q04439; details: median of control spots 471
T4 sequence (Q04439 1072-1160, looked up): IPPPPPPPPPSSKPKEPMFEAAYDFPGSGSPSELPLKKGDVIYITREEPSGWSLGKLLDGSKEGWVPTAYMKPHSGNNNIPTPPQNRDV

Bud14, P27637 = biological target: T5, Bud14, P27637; details: median of control spots 956
T5 sequence (P27637 247-328, looked up): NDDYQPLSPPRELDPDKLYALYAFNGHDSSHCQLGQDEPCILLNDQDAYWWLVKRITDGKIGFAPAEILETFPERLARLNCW

Sla1-3, P32790 = biological target: T6, Sla1-3, P32790; details: median of control spots 5475
T6 sequence (P32790 344-424, looked up): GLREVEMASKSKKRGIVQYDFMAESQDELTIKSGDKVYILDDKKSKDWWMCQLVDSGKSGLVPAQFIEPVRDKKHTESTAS

Rvs167, P39743 = details: median of control spots 2707
Rvs167, P39743, sequence (P39743 419-482): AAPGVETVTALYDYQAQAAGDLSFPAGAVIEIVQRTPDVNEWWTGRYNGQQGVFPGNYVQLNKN

Lsb4, P32793 = biological target: T7, Lsb4, P32793; details: median of control spots 397
T7 sequence (P32793 402-468, looked up): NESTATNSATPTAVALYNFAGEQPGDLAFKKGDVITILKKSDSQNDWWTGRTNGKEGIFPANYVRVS

Myo3, P36006 = details: median of control spots 468
Bbc1, P47068 = biological target: T8, Bbc1, P47068; details: median of control spots 796
T8 sequence (P47068 1-78, looked up): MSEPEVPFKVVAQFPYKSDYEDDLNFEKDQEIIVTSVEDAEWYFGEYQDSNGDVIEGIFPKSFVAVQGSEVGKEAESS

Pin3, Q06449 = biological target: T9, Pin3, Q06449; details: median of control spots 2171
T9 sequence (Q06449 53-122, looked up): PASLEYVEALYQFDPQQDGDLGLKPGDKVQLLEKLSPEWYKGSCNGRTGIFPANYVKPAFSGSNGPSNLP

Hof1, Q05080 = biological target: T10, Hof1, Q05080; details: median of control spots 4086
T10 sequence (Q05080 590-669, looked up): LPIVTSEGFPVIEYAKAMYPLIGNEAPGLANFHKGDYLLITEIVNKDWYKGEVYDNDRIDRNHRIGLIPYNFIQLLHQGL

Bem1-1, P29366 = details: median of control spots 4282
Bem1-1, P29366, sequence (P29366 55-141): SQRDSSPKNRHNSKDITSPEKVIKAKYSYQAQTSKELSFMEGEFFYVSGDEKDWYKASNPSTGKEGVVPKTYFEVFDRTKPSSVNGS

Fus1, P11710 = biological target: T11, Fus1, P11710; details: median of control spots 1200
T11 sequence (P11710 432-512, looked up): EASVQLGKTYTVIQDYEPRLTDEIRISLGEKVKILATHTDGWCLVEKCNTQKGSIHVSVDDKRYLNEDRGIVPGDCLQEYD

Bzz1-2, P38822 = biological target: T12, Bzz1-2, P38822; details: median of control spots 4538
T12 sequence (P38822 568-633, looked up): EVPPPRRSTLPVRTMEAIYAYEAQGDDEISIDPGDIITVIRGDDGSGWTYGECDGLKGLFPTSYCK

Pex13, P80667 = biological target: T13, Pex13, P80667; details: median of control spots 1341
T13 sequence (P80667 295-386, looked up): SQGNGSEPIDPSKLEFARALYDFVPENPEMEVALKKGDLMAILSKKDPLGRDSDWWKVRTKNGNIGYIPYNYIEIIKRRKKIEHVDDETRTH

GST = details: median of control spots 978
Abp1, P15891 = biological target: T14, Abp1, P15891; details: median of control spots 935
T14 sequence (P15891 535-592, looked up): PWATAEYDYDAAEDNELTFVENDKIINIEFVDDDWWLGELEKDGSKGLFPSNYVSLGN

Lsb3, P43603 = biological target: T15, Lsb3, P43603; details: median of control spots 406
T15 sequence (P43603 385-451, looked up): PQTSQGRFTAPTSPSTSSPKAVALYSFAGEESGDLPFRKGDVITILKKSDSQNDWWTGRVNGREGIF

Bem1-2, P29366 = details: median of control spots 4347
Bem1-2, P29366, sequence (P29366 139-227): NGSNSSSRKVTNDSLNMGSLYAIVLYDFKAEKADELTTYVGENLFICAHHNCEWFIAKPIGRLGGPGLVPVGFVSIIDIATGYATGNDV

Lsb1, P53281 = biological target: T16, Lsb1, P53281; details: median of control spots 388
T16 sequence (P53281 45-122, looked up): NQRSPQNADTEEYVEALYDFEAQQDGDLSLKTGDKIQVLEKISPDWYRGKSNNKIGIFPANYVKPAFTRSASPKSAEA

Boi2, P39969 = biological target: T17, Boi2, P39969; details: median of control spots 1161
T17 sequence (P39969 32-116, looked up): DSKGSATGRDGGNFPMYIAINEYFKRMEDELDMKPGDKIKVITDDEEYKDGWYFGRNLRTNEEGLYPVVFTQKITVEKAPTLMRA

Cdc25, P04821 = biological target: T18, Cdc25, P04821; details: median of control spots 969
T18 sequence (P04821 50-136, looked up): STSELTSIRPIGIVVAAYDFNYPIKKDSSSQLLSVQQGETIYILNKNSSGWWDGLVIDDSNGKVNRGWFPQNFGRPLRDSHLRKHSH

Boi1, P38041 = biological target: T19, Boi1, P38041; details: median of control spots 1162
T19 sequence (P38041 1-86, looked up): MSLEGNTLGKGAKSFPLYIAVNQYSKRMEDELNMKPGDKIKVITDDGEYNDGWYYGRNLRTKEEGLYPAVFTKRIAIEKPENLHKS

Bzz1-1, P38822 = biological target: T20, Bzz1-1, P38822; details: median of control spots 4446
T20 sequence (P38822 478-572, looked up): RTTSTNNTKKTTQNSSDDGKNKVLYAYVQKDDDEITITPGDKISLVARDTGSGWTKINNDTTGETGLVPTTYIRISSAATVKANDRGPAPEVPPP

Cyk3, Q07533 = biological target: T21, Cyk3, Q07533; details: median of control spots 1451
T21 sequence (Q07533 1-83, looked up): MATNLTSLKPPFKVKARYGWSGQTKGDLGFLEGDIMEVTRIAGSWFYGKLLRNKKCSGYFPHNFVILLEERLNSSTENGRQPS

Sho1, P40073, sequence (P40073 287-367): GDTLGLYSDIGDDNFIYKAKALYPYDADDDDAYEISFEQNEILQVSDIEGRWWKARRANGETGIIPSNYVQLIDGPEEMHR

LASNSPPVYPKRIRH
SPOT intensity (Sho1, P40073): 7 | SPOT intensity (Hse1, P38753): 1 | SPOT intensity (Sla1-2, P32790): 0 | SPOT intensity (Nbp2, Q12163): 0 | SPOT intensity (Myo5, Q04439): 0 | SPOT intensity (Bud14, P27637): 0 | SPOT intensity (Sla1-3, P32790): 0 | SPOT intensity (Rvs167, P39743): 0 | SPOT intensity (Lsb4, P32793): 107 | SPOT intensity (Myo3, P36006): 0 | SPOT intensity (Bbc1, P47068): 4 | SPOT intensity (Pin3, Q06449): 0 | SPOT intensity (Hof1, Q05080): 1 | SPOT intensity (Bem1-1, P29366): 0 | SPOT intensity (Fus1, P11710): 0 | SPOT intensity (Bzz1-2, P38822): 0 | SPOT intensity (Pex13, P80667): 3 | SPOT intensity (GST): 0 | SPOT intensity (Abp1, P15891): 68 | SPOT intensity (Lsb3, P43603): 167 | SPOT intensity (Bem1-2, P29366): 0 | SPOT intensity (Lsb1, P53281): 0 | SPOT intensity (Boi2, P39969): 0 | SPOT intensity (Cdc25, P04821): 0 | SPOT intensity (Boi1, P38041): 0 | SPOT intensity (Bzz1-1, P38822): 0 | SPOT intensity (Cyk3, Q07533): 0

SAPDIPPRSPNRNAH
SPOT intensity (Sho1, P40073): 0 | SPOT intensity (Hse1, P38753): 0 | SPOT intensity (Sla1-2, P32790): 423 | SPOT intensity (Nbp2, Q12163): 0 | SPOT intensity (Myo5, Q04439): 0 | SPOT intensity (Bud14, P27637): 2 | SPOT intensity (Sla1-3, P32790): 3 | SPOT intensity (Rvs167, P39743): 816 | SPOT intensity (Lsb4, P32793): 145 | SPOT intensity (Myo3, P36006): 0 | SPOT intensity (Bbc1, P47068): 1 | SPOT intensity (Pin3, Q06449): 4 | SPOT intensity (Hof1, Q05080): 0 | SPOT intensity (Bem1-1, P29366): 0 | SPOT intensity (Fus1, P11710): 0 | SPOT intensity (Bzz1-2, P38822): 0 | SPOT intensity (Pex13, P80667): 21 | SPOT intensity (GST): 0 | SPOT intensity (Abp1, P15891): 8 | SPOT intensity (Lsb3, P43603): 207 | SPOT intensity (Bem1-2, P29366): 0 | SPOT intensity (Lsb1, P53281): 857 | SPOT intensity (Boi2, P39969): 312 | SPOT intensity (Cdc25, P04821): 0 | SPOT intensity (Boi1, P38041): 240 | SPOT intensity (Bzz1-1, P38822): 0 | SPOT intensity (Cyk3, Q07533): 0

QGYPRQPQRPQRYHP
SPOT intensity (Sho1, P40073): 0 | SPOT intensity (Hse1, P38753): 3 | SPOT intensity (Sla1-2, P32790): 0 | SPOT intensity (Nbp2, Q12163): 0 | SPOT intensity (Myo5, Q04439): 0 | SPOT intensity (Bud14, P27637): 1 | SPOT intensity (Sla1-3, P32790): 0 | SPOT intensity (Rvs167, P39743): 0 | SPOT intensity (Lsb4, P32793): 16 | SPOT intensity (Myo3, P36006): 0 | SPOT intensity (Bbc1, P47068): 34 | SPOT intensity (Pin3, Q06449): 2 | SPOT intensity (Hof1, Q05080): 3 | SPOT intensity (Bem1-1, P29366): 0 | SPOT intensity (Fus1, P11710): 0 | SPOT intensity (Bzz1-2, P38822): 0 | SPOT intensity (Pex13, P80667): 7 | SPOT intensity (GST): 1 | SPOT intensity (Abp1, P15891): 9 | SPOT intensity (Lsb3, P43603): 46 | SPOT intensity (Bem1-2, P29366): 1 | SPOT intensity (Lsb1, P53281): 1 | SPOT intensity (Boi2, P39969): 0 | SPOT intensity (Cdc25, P04821): 0 | SPOT intensity (Boi1, P38041): 0 | SPOT intensity (Bzz1-1, P38822): 0 | SPOT intensity (Cyk3, Q07533): 1

EAEEAAPQLPSRSSA
SPOT intensity (Sho1, P40073): 0 | SPOT intensity (Hse1, P38753): 0 | SPOT intensity (Sla1-2, P32790): 0 | SPOT intensity (Nbp2, Q12163): 0 | SPOT intensity (Myo5, Q04439): 0 | SPOT intensity (Bud14, P27637): 0 | SPOT intensity (Sla1-3, P32790): 2 | SPOT intensity (Rvs167, P39743): 75 | SPOT intensity (Lsb4, P32793): 529 | SPOT intensity (Myo3, P36006): 0 | SPOT intensity (Bbc1, P47068): 0 | SPOT intensity (Pin3, Q06449): 2 | SPOT intensity (Hof1, Q05080): 0 | SPOT intensity (Bem1-1, P29366): 0 | SPOT intensity (Fus1, P11710): 1 | SPOT intensity (Bzz1-2, P38822): 2 | SPOT intensity (Pex13, P80667): 6 | SPOT intensity (GST): 0 | SPOT intensity (Abp1, P15891): 0 | SPOT intensity (Lsb3, P43603): 956 | SPOT intensity (Bem1-2, P29366): 0 | SPOT intensity (Lsb1, P53281): 62 | SPOT intensity (Boi2, P39969): 1 | SPOT intensity (Cdc25, P04821): 2 | SPOT intensity (Boi1, P38041): 1 | SPOT intensity (Bzz1-1, P38822): 2 | SPOT intensity (Cyk3, Q07533): 0
